Test results published in PMC6127989, “Cytosolic GAPDH as a redox-dependent regulator of energy metabolism” (BMC Plant Biology, 2018).

B1: recombinant thioredoxin Trx-h3 from A. thaliana (natural protein, UniProt Q42403 1-118, looked up)
chain: MAAEGEVIACHTVEDWTEKLKAANESKKLIVIDFTATWCPPCRFIAPVFADLAKKHLDVVFFKVDVDELNTVAEEFKVQAMPTFIFMKEGEIKETVVGAAKEEIIANLEKHKTVVAAA
notes: Thioredoxin h3 (Trx-h3), Arabidopsis thaliana
B2: recombinant voltage-dependent anion-selective channel VDAC3 from A. thaliana, reconstituted in a lipid bilayer (natural protein, UniProt Q9SMX3 1-274, looked up)
chain: MVKGPGLYTEIGKKARDLLYRDYQGDQKFSVTTYSSTGVAITTTGTNKGSLFLGDVATQVKNNNFTADVKVSTDSSLLTTLTFDEPAPGLKVIVQAKLPDHKSGKAEVQYFHDYAGISTSVGFTATPIVNFSGVVGTNGLSLGTDVAYNTESGNFKHFNAGFNFTKDDLTASLILNDKGEKLNASYYQIVSPSTVVGAEISHNFTTKENAITVGTQHALDPLTTVKARVNNAGVANALIQHEWRPKSFFTVSGEVDSKAIDKSAKVGIALALKP
notes: VDAC3, mitochondrial outer membrane voltage-dependent anion-selective channel 3, Arabidopsis thaliana; cDNA cloned into pCold I with SacI and XbaI; Protein:lipid 1:1000 in DOPC; formed a polymer-supported membrane on the RIf chip; The tag is inferred from the vector; also called AtVDAC3

Tests used:
Settings in all cases: both partners purified
[1] = molecular target: T1, reduced recombinant GapC1 (cytosolic NAD-dependent glyceraldehyde-3-phosphate dehydrogenase) from A. thaliana (A. thaliana, UniProt P25858 1-338); test: reflectance interferometry (RIf); GapC1 (or the control mCitrine) immobilised via NHS on a PEG surface; Trx-h3 injected at different concentrations; 20 mM HBS-buffer (100 mM NaCl, 0.01% Triton X-100, pH 7.5) with 2 mM DTT; KD from equilibrium binding signals by Scatchard plot
T1 construct: GapC1, cytosolic NAD-dependent glyceraldehyde-3-phosphate dehydrogenase, Arabidopsis thaliana, At3g04120; Used as analyte on VDAC3 (pre-treated with 2 mM DTT) and immobilised via NHS in buffer with 2 mM DTT for Trx-h3; also called reduced GapC1; GAPDH; source: desalted before use; pre-treated with 2 mM DTT

[2] = molecular target: T2, oxidized recombinant GapC1 from A. thaliana (pretreated with 0.5 mM H2O2 + 0.5 mM GSH) (A. thaliana, UniProt P25858 1-338, oxidized by pretreatment with 0.5 mM H2O2 + 0.5 mM GSH; modified residues not stated for this sample); test: reflectance interferometry (RIf); VDAC3 in a polymer-supported DOPC membrane on the chip; GapC1 pre-treated with 0.5 mM H2O2 + 0.5 mM GSH (oxidized) injected at different amounts in a flow chamber; rinsing with HBS buffer; association and dissociation phases fitted separately; protein-free lipid membrane as negative control
T2 construct: GapC1, cytosolic NAD-dependent glyceraldehyde-3-phosphate dehydrogenase, Arabidopsis thaliana, At3g04120; Same recombinant protein as m1, oxidised in vitro; also called oxidized GapC1; source: desalted before use; pre-treated with 0.5 mM H2O2 + 0.5 mM GSH

[3] = molecular target: T1, reduced recombinant GapC1 (cytosolic …); test: reflectance interferometry (RIf); VDAC3 in a polymer-supported DOPC membrane on the chip; GapC1 pre-treated with 2 mM DTT (reduced) injected at different amounts in a flow chamber; rinsing with HBS buffer; association and dissociation phases fitted separately; protein-free lipid membrane as negative control

T1 sequence (P25858 whole entry): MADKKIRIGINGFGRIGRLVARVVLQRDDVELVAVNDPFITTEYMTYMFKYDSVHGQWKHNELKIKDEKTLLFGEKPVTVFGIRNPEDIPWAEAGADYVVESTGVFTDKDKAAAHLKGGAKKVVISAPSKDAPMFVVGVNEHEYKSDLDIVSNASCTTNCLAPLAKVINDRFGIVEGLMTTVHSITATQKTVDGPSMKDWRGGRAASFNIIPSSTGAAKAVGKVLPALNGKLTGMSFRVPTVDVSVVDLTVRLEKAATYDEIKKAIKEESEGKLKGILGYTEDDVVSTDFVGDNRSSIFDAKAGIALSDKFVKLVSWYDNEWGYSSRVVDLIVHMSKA
T2 sequence (P25858 whole entry): as above

Row | Binder | Kd [1] | Kd [2] | Kd [3]
1 | B1 | 40000 nM |  | 
2 | B2 |  | 556 nM | 236 nM
